The target in this experiment is dual chain avidin dcAvd(I117C5→4S16C,V115H6→5). Nature of the experiment: non-reducing SDS-PAGE; denatured in SDS-PAGE sample buffer without β-mercaptoethanol at 95°C for ten minutes, 15% gel, Coomassie staining.

Take “dual chain avidin dcAvd(I117C5→4S16C,V115H6→5)”: the stoichiometry N came to 2.
